Measured values reported in paper PMC11574045, “A cofactor-induced repressive type of transcription factor condensation can be induced by synthetic peptides to suppress tumorigenesis” (The EMBO Journal, 2024).

Tested on: HEK293FT cells transfected with TF library
Test: Screening of TF condensates based on fluorescent puncta
Format: cell-based
Conditions: Figure 1B numerical data; TF library screen, one value per transcriptional factor
How it was run: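 Puncta scoring used automated confocal imaging of fifty random fields per well, after anti-Flag or anti-GAL4 immunofluorescence (Alexa 488) in PFA-fixed cells. HEK293FT cells carried TF library plasmids delivered with PEI (1.6 μg/ml DNA). At 60 h they were switched for 12 h to glucose-containing or glucose-free medium.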

Molecule | Z score of condensed fraction
TWIST1 (protein, UniProt Q15672 1-202, looked up) Twist-related protein 1: MMQDVSSSPVSPADDSLSNSEEEPDRQQPPSGKRGGRKRRSSRRSAGGGAGPGGAAGGGVGGGDEPGSPAQGKRGKKSAGCGGGGGAGGGGGSSSGGGSPQSYEELQTQRVMANVRERQRTQSLNEAFAALRKIIPTLPSDKLSKIQTLKLAARYIDFLYQVLQSDELDSKMASCSYVAHERLSYAFSVWRMEGAWSMSASH | -0.8032
TULP2 (protein, UniProt O00295 1-520, looked up) Tubby-related protein 2: MSQDNDTLMRDILGHELAAMRLQKLEQQRRLFEKKQRQKRQELLMVQANPDASPWLWRSCLREERLLGDRGLGNPFLRKKVSEAHLPSGIHSALGTVSCGGDGRGERGLPTPRTEAVFRNLGLQSPFLSWLPDNSDAELEEVSVENGSVSPPPFKQSPRIRRKGWQAHQRPGTRAEGESDSQDMGDAHKSPNMGPNPGMDGDCVYENLAFQKEEDLEKKREASESTGTNSSAAHNEELSKALKGEGGTDSDHMRHEASLAIRSPCPGLEEDMEAYVLRPALPGTMMQCYLTRDKHGVDKGLFPLYYLYLETSDSLQRFLLAGRKRRRSKTSNYLISLDPTHLSRDGDNFVGKVRSNVFSTKFTIFDNGVNPDREHLTRNTARIRQELGAVCYEPNVLGYLGPRKMTVILPGTNSQNQRINVQPLNEQESLLSRYQRGDKQGLLLLHNKTPSWDKENGVYTLNFHGRVTRASVKNFQIVDPKHQEHLVLQFGRVGPDTFTMDFCFPFSPLQAFSICLSSFN | -0.5004
USP22 (protein, UniProt Q9UPT9 1-525, looked up) Ubiquitin carboxyl-terminal …: MVSRPEPEGEAMDAELAVAPPGCSHLGSFKVDNWKQNLRAIYQCFVWSGTAEARKRKAKSCICHVCGVHLNRLHSCLYCVFFGCFTKKHIHEHAKAKRHNLAIDLMYGGIYCFLCQDYIYDKDMEIIAKEEQRKAWKMQGVGEKFSTWEPTKRELELLKHNPKRRKITSNCTIGLRGLINLGNTCFMNCIVQALTHTPLLRDFFLSDRHRCEMQSPSSCLVCEMSSLFQEFYSGHRSPHIPYKLLHLVWTHARHLAGYEQQDAHEFLIAALDVLHRHCKGDDNGKKANNPNHCNCIIDQIFTGGLQSDVTCQVCHGVSTTIDPFWDISLDLPGSSTPFWPLSPGSEGNVVNGESHVSGTTTLTDCLRRFTRPEHLGSSAKIKCSGCHSYQESTKQLTMKKLPIVACFHLKRFEHSAKLRRKITTYVSFPLELDMTPFMASSKESRMNGQYQQPTDSLNNDNKYSLFAVVNHQGTLESGHYTSFIRQHKDQWFKCDDAIITKASIKDVLDSEGYLLFYHKQFLEYE | 0.5078
TWIST2 (protein, UniProt Q8WVJ9 1-160, looked up) Twist-related protein 2: MEEGSSSPVSPVDSLGTSEEELERQPKRFGRKRRYSKKSSEDGSPTPGKRGKKGSPSAQSFEELQSQRILANVRERQRTQSLNEAFAALRKIIPTLPSDKLSKIQTLKLAARYIDFLYQVLQSDEMDNKMTSCSYVAHERLSYAFSVWRMEGAWSMSASH | -0.4698
UBTF (protein, UniProt P17480 1-764, looked up) Nucleolar transcription …: MNGEADCPTDLEMAAPKGQDRWSQEDMLTLLECMKNNLPSNDSSKFKTTESHMDWEKVAFKDFSGDMCKLKWVEISNEVRKFRTLTELILDAQEHVKNPYKGKKLKKHPDFPKKPLTPYFRFFMEKRAKYAKLHPEMSNLDLTKILSKKYKELPEKKKMKYIQDFQREKQEFERNLARFREDHPDLIQNAKKSDIPEKPKTPQQLWYTHEKKVYLKVRPDATTKEVKDSLGKQWSQLSDKKRLKWIHKALEQRKEYEEIMRDYIQKHPELNISEEGITKSTLTKAERQLKDKFDGRPTKPPPNSYSLYCAELMANMKDVPSTERMVLCSQQWKLLSQKEKDAYHKKCDQKKKDYEVELLRFLESLPEEEQQRVLGEEKMLNINKKQATSPASKKPAQEGGKGGSEKPKRPVSAMFIFSEEKRRQLQEERPELSESELTRLLARMWNDLSEKKKAKYKAREAALKAQSERKPGGEREERGKLPESPKRAEEIWQQSVIGDYLARFKNDRVKALKAMEMTWNNMEKKEKLMWIKKAAEDQKRYERELSEMRAPPAATNSSKKMKFQGEPKKPPMNGYQKFSQELLSNGELNHLPLKERMVEIGSRWQRISQSQKEHYKKLAEEQQKQYKVHLDLWVKSLSPQDRAAYKEYISNKRKSMTKLRGPNPKSSRTTLQSKSESEEDDEEDEDDEDEDEEEEDDENGDSSEDGGDSSESSSEDESEDGDENEEDDEDEDDDEDDDEDEDNESEGSSSSSSSSGDSSDSDSN | -0.959
